Test results reported in patent US20140065069A1, “Materials and Methods Relating to Cardiovascular Imaging” (KING'S COLLEGE LONDON, priority 2011, published 2014).
Entries after “also recorded” stand apart in the source; their conditions may differ. No end group written: not given here.

What was measured:
[1] = biological target: T1, tropoelastin (Mus musculus, UniProt P54320); test: In vivo imaging of plaques in HFD fed ApoE−/− mice with gadolinium labelled conjugates; details: gadolinium labelled conjugate
T1 construct: from tissue; host or cells: plaque-laden brachiocephalic artery and aortic arch of living HFD-fed ApoE-/- mice
T1 sequence (P54320 28-860): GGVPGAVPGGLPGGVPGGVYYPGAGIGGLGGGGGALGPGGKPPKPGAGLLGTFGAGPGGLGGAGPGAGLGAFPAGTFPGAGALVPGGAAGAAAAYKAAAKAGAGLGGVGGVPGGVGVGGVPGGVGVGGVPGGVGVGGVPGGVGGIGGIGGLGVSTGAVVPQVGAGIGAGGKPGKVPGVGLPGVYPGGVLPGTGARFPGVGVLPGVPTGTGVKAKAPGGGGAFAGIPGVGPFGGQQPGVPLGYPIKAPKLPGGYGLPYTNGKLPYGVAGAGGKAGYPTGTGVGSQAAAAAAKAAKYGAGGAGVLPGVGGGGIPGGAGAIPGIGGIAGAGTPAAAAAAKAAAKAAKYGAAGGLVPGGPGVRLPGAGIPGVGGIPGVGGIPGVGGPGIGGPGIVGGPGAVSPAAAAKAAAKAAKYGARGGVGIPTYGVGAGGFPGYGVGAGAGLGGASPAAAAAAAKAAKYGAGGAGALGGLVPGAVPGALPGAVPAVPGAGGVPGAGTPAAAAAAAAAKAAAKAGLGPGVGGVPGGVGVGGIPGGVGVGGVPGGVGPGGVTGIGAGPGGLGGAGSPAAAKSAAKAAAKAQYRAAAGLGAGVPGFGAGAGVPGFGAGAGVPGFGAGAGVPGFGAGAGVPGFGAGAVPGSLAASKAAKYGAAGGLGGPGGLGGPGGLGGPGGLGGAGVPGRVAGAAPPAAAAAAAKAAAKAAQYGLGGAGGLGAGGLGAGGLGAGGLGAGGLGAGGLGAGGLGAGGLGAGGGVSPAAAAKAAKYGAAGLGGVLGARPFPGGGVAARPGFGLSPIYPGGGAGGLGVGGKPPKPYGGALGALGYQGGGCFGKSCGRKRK
From the text: MRI will be performed in a mouse model of progressive atherosclerosis at 4, 8 and 12 weeks post commencement of a high fat diet and in a model of angiotensin-II (Ang-II) induced aortic aneurysm formation at 1, 2, 3 and 4 weeks post Ang-II releasing mini pump implantation. Ten mice will be scanned at each time point either receiving the tropoelastin or TNF-alpha binding contrast agent (CA) resulting in a total of […], respectively. Animals will undergo a pre and post contrast MRI session at each time point and subsequently will be sacrificed for validation with histology, immunostaining, electron and mass spectroscopy.

Row | Substance | uptake in plaque-free carotid artery [1] | uptake in plaque-laden brachiocephalic artery (BCA) and aortic arch [1] | time of imaging post contrast injection (12 weeks HFD fed ApoE−/− mice) [h] | biodistribution (HFD fed ApoE−/− mice) | renal clearance (HFD fed ApoE−/− mice)
1 | (DOTA-Gd)-VVGSPSAQDEASPLS (not fully specified (N-terminus); printed as (DOTA-Gd)-VVGSPSAQDEASPLS; also: Gd complexed by DOTA) | no uptake; also recorded: not in the plaque-free carotid artery | preferential uptake | ≥ 1 | favourable biodistribution | rapid renal clearance
2 | K(DOTA-Gd)-YPDHVQYTHY (not fully specified (N-terminus); printed as K(DOTA-Gd)-YPDHVQYTHY; also: Gd complexed by DOTA on the N-terminal Lys) [K-(DOTA-Gd)-YPDHVQYTHY] | no uptake | preferential uptake |  |  | 
